Measurements published in paper doi:10.1101/2022.02.02.478833 (bioRxiv, 2022).

T1: MOTH domain of human Otoraplin (18-128) (human, UniProt Q9NRC9 18-128, [U-15N]-enriched)
T1 sequence (looked up): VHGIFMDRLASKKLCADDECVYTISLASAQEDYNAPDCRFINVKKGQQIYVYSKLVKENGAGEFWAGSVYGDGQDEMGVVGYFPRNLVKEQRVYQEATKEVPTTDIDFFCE


Experiments:
[1] = target: T1, MOTH domain of human Otoraplin (18-128); experiment: NMR titration
[2] = target: human TANGO1 (21-131) cargo-recognition (MOTH) domain (human) (UniProt Q5JRA6); experiment: NMR titration

Row | Binder | Kd [1] | koff [1] | Kd [2] | koff [2]
1 | VPPPVPPRRR (peptide, UniProt Q07889 1149-1158, looked up) [class II PPII helix peptide SOS1 (1149-1158)] | 1300 µM | 350000 s⁻¹ |  | 
2 | FHNYNVEELLGFLELYNSAA [synthetic peptide of residues 132 to 151 of human TANGO1] |  |  | 321 µM | 1100 s⁻¹
